B1: KL2B242 (Fab) (antibody, V domains shown)
VH: QVQLQESGPGLVKPSETLSLTCTVSGGSISSYYWSWLRQPAGSGLEWIGRLYVSGFTNYNPSLKSRVTLSLDPSRNQLSLKLSSVTAADTAVYYCAGDSGNYWGWFDPWGQGTLVTVSS
VL: SYELTQPPSVSVSPGETASITCSGDQLGENYACWYQQKPGQSPVLVIYQDSKRPSGIPERFSGSNSGNTATLTISGTQALDEADYYCQAWDNSIVVFGGGTKLTVL
B2: KL2B467 (Fab) (antibody, V domains shown)
VH: QVQLVESGGGVVQPGRSLRLSCAASGFTFSYYGMHWVRQAPGKGLEWVAFISYDGSNKYYADSVKGRFTISRDNSKNTLYLQMNSLRAEDTAVYYCAHLPYSGSYWAFDYWGQGTQVTVSS
VL: QSVLTQPPSVSVAPGQTASITCGGDNIGSKSVHWYQQKPGQAPVLVVYDNSDRPSGIPERFSGSNSGTTATLTISRVEAGDEADYYCQVWDSSSDHPVVFGGGTKVTV
B3: KL2B53 (Fab) (antibody, V domains shown)
VH: EVQLVESGGGVVQPGRSLRLSCVASGFTFSSYDIHWVRQAPGKGLEWVAIISYDGSKKDYTDSVKGRFTISRDNSKNTLYLQMDSLRVEDSAVYSCARESGWSHYYYYGMDVWGQGTMVTVSS
VL: DIVMTQSPSSLSASVGDRVTITCRASQDISNYLAWYQQKPGKVPKFLIYAASTLHSGVPSRFSGSGSGTDFTLTISSLQPEDVATYYCQKYNSAPYTFGQGTRLEIK

Assay: Thermal stability (Tm) by Differential Scanning Fluorimetry (NanoDSF)
Type: physicochemical
Settings: 0.5 mg/mL in Phosphate Buffered Saline, pH 7.4
Protocol: Thermal stability was determined by Differential Scanning Fluorimetry (NanoDSF) using an automated Prometheus instrument. NanoDSF was used to measure Tm of molecules at a concentration of 0.5 mg/mL in Phosphate Buffered Saline, pH 7.4. Measurements were made by loading samples into 24 well capillary from a 384 well sample plate. Duplicate runs were performed for each sample. The thermal scans span from 20° C. to 95° C. at a rate of 1.0° C./minute. Intrinsic tryptophan and tyrosine fluorescence were monitored at the emission wavelengths of 330 nm and 350 nm, and the F350/F330 nm ratio were plotted against temperature to generate unfolding curves.

Tm (° C.), >70 °C:
B1
B2
B3

Reference: patent US20250099635A1, “IIMMUNOCONJUGATES COMPRISING KALLIKREIN RELATED PEPTIDASE 2 ANTIGEN BINDING DOMAINS AND THEIR USES” (Janssen Biotech, Inc., priority 2022, published 2025)
